Test results reported in patent US20210206877A1 (Genentech, published 2021).

How the values were obtained:
Assay in all cases: cell-based or functional assay
[1] = biological target: BACE1 endogenous to primary cortical neurons from E16.5 CD1 mice (mouse, UniProt P56818 46-501)
[2] = biological target: BACE1 ECD (as used in the enzyme activity assay) (UniProt P56817 22-457, limits assumed)
murine BACE1 ECD = biological target: murine BACE1 ECD
human BACE1 ECD = human BACE1 ECD (human, UniProt P56817)
human BACE1 ECD, sequence (P56817 22-457): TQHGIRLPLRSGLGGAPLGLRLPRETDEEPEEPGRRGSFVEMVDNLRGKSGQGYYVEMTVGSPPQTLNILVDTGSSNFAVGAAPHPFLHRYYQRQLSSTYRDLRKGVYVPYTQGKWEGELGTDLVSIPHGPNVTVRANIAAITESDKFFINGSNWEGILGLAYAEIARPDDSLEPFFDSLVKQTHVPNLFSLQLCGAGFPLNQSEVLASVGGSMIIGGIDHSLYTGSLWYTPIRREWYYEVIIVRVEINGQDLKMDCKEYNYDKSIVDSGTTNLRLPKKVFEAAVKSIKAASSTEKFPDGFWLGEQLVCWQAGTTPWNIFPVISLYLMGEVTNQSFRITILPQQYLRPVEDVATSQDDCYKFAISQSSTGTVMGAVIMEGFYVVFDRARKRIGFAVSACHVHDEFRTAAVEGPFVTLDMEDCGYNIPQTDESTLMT
For % inhibition, FRET short substrate assay (negative = activation) in this document: test concentration or dose not given here.

BACE1 endogenous to primary cortical neurons from E16.5 CD1 mice, sequence (P56818 46-501): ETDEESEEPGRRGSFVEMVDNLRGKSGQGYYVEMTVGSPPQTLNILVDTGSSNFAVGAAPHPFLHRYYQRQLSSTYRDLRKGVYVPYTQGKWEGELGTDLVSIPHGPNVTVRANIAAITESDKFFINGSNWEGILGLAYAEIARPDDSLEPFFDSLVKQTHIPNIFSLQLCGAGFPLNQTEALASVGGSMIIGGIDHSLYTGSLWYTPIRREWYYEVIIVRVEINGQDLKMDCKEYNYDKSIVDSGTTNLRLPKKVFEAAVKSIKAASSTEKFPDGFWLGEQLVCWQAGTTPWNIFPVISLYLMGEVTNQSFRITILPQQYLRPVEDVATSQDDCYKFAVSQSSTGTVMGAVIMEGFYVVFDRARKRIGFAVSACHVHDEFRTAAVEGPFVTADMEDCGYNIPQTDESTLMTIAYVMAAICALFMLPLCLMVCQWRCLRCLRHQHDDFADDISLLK
BACE1 ECD (as used in the enzyme activity assay), sequence (P56817 22-457 limits assumed): as the sequence (P56817 22-457) above
murine BACE1 ECD, sequence (single chain, as listed by the source limits assumed): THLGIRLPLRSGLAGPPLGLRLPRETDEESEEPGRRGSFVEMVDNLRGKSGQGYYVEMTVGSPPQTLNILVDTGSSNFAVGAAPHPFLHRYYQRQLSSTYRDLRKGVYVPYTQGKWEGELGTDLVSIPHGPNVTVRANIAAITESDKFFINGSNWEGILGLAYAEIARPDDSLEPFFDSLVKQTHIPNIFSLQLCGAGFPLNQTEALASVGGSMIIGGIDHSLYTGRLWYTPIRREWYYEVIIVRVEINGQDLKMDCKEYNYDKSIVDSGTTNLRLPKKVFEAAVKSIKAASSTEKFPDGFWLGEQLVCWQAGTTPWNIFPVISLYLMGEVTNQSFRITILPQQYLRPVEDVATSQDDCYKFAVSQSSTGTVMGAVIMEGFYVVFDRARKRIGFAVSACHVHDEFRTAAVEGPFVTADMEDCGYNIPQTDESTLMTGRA

| Binder | max % inhibition, Abeta x-40 in mouse cortical neurons [1] [%] | EC50, FRET short substrate assay [2] [nM] | EC50, HTRF long substrate assay [2] [nM] | % inhibition, FRET short substrate assay (negative = activation) (murine BACE1 ECD) [%] | % inhibition, FRET short substrate assay (negative = activation) (human BACE1 ECD) [%] |
| --- | --- | --- | --- | --- | --- |
| 6285 (antibody, V domains shown) VH: QLQLQESGPGLVKPSETLSLTCTVSGGSTSSSSYYWGWIRQPPGKGLEWIGSIYRSGSTYYNPSLKSRVTISVDTSKNQFSLKLSSVTAADTAVYYCARVGHGISYFDLWGRGTLVTVSS VL: EIVLTQSPATLSLSPGERATLSCRASQSVSSYLAWYQQKPGQAPRLLIYDASSRATGIPARFSGSGSGTDFTLTISSLEPEDFAVYYCQQSLTWPPRTFGGGTKVEIK | 57 |  |  |  |  |
| 6290 (antibody, V domains shown) VH: QLQLQESGPGLVKPSETLSLTCTVSGGSISSSSYYWGWIRQPPGKGLEWIGMIYYSGSTWYNPSLKSRVTISVDTSKNQFSLKLSSVTAADTAVYYCARVGLGVSYFDLWGRGTLVTVSS VL: EIVLTQSPATLSLSPGERATLSCRASQSVSSYLAWYQQKPGQAPRLLIYDASKRATGIPARFSGSGSGTDFTLTISSLEPEDFAVYYCQQVYTWPPRTFGGGTKVEIK | 63 |  |  |  |  |
| 6297 (antibody, V domains shown) VH: QLQLQESGPGLVKPSETLSLTCTVSGGPISSSSYYWGWIRQPPGKGLEWIGNIYYSGSTYYNPSLRGRVTISVDTSKNQFSLKLSSVTAADTAVYYCARLGHGYNYFDLWGRGTLVTVSS VL: EIVLTQSPATLSLSPGERATLSCRASQSVSSYLAWFQQKPGQAPRLLIYDASNRATGIPARFSGSGSGTDFTLTISSLEPEDFAVYYCQQVYVWPPRTFGGGTKVEIK | 63 |  |  |  |  |
| 6288 (antibody, V domains shown) VH: QLQLQESGPGLVKPSETLSLTCTVSGGSTSSSSYYWGWIRQPPGKGLEWIGSIYRSGSTYYNPSLRSRVTISVDTSKNQFSLKLSSVTAADTAVYYCARVGHGISYFDLWGRGTLVTVSS VL: EIVLTQSPATLSLSPGERATLSCRASQSVSSYLAWYQQKPGQAPRLLIYDASNRATGIPARFSGSGSGTDFTLTISSLEPEDFAVYYCQQSLTWPPRTFGGGTKVEIK | 67 |  |  |  |  |
| 6293 (antibody, V domains shown) VH: QLQLQESGPGLVKPSETLSLTCTVSGGSISSSSYYWGWIRQPPGKGLEWIGMIYYSGSTWYNPSLRSRVTISVDTSKNQFSLKLSSVTAADTAVYYCARVGHGVSYFDLWGRGTLVTVSS VL: EIVLTQSPATLSLSPGERATLSCRASQSVSSYLAWYQQKPGQAPRLLIYDASKRATGIPARFSGSGSGTDFTLTISSLEPEDFAVYYCQQVYTWPPRTFGGGTKVEIK | 75 |  |  |  |  |
| 6294 (antibody, V domains shown) VH: QLQLQESGPGLVKPSETLSLTCTVSGGSISSSSHYWGWIRQPPGKGLEWIGMIYYSGSTWYNPSLKSRVTISVDTSKNQFSLKLSSVTAADTAVYYCARVGHGVSYFDLWGRGTLVTVSS VL: EIVLTQSPATLSLSPGERATLSCRASQSVSSYLAWYQQKPGQAPRLLIYDASKRATGIPARFSGSGSGTDFTLTISSLEPEDFAVYYCQQVYTWPPRTFGGGTKVEIK | 59 |  |  |  |  |
| 6289 (antibody, V domains shown) VH: QLQLQESGPGLVKPSETLSLTCTVSGGSISSSSYYWGWIRQPPGKGLEWIGSIYRSGSTYYNPSLRSRVTISVDTSKNQFSLKLSSVTAADTAVYYCVRVGHGISYFDLWGRGTLVTVSS VL: EIVLTQSPATLSLSPGERATLSCRASQSVSSYLAWYQQKPGQAPRLLIYDASNRATGIPARFSGSGSGTDFTLTISSLEPEDFAVYYCQQSLTWPPRTFGGGTKVEIK | 74 |  |  |  |  |
| 6296 (antibody, V domains shown) VH: QLQLQESGPGLVKPSETLSLTCTVSGGSISSSSYYWGWIRQPPGKGLEWIGNIYYSGSTYYNPSLRGRVTISVDTSKNQFSLKLSSVTAADTAVYYCARLGHGYNYFDLWGRGTLVTVSS VL: EIVLTQSPATLSLSPGERATLSCRASQSVSSYLAWFQQKPGQAPRLLIYDASNRATGIPARFSGSGSGTDFTLTISSLEPEDFAVYYCQQVYVWPPRTFGGGTKVEIK | 62 |  |  |  |  |
| 6298 (antibody, V domains shown) VH: QLQLQESGPGLVKPSETLSLTCTVSGGSISWSSYYWSWIRQPPGKGLEWIGNIYYSGSTYYNPSLKSRVTISVDTSKNQFSLKLSSVTAADTAVYYCARLGHGYNYFDLWGRGTLVTVSS VL: EIVLTQSPATLSLSPGERATLSCRASQSVSSYLAWFQQKPGQAPRLLIYDASNRATGIPARFSGSGSGTDFTLTISSLEPEDFAVYYCQQVYVWPPRTFGGGTKVEIK | 67 |  |  |  |  |
| 6291 (antibody, V domains shown) VH: QLQLQESGPGLVKPSETLSLTCTVSGGSISSSSYYWGWIRQPPGKGLEWIGMIYYSGSTWYNPSLKSRVTISVDTSKNQFSLKLSSVTAADTAVYYCARVGHGVSYFDLWGRGTLVTVSS VL: EIVLTQSPATLSLSPGERATLSCRASQSVSSYLAWYQQKPGQAPRLLIYGASKRATGIPARFSGSGSGTDFTLTISSLEPEDFAVYYCQQVYTWPPRTFGGGTKVEIK | 68 |  |  |  |  |
| 5878 (antibody, V domains shown) VH: EVQLLESGGGLVQPGGSLRLSCAASGFTFSSYAMSWVRQAPGKGLEWVSAISGSGISTPYADSVKGRFTISRDNSKNTLYLQMNSLRAEDTAVYYCAKGAGHGSYVKGWFDPWGQGTLVTVSS VL: EIVLTQSPATLSLSPGERATLSCRASQSVSSYLAWYQQKPGQAPRLLIYDASNRATGIPARFSGSGSGTDFTLTISSLEPEDFAVYYCQQSVNFPFTFGGGTKVEIK |  | 24.3 | 164 | 98 | 99 |
| 5532 (antibody, V domains shown) VH: not shown VL: EIVLTQSPATLSLSPGERATLSCRASQSVSSYLAWYQQKPGQAPRLLIYDASNRATGIPARFSGSGSGTDFTLTISSLEPEDFAVYYCQQSSNFPFTFGGGTKVEIK |  | 52.3 | 104 | 50 | 56 |
| 5880 (antibody, V domains shown) VH: EVQLLESGGGLVQPGGSLRLSCAASGFTFGSYAMTWVRQAPGKGLEWVSAISGSGISTPYADSVKGRFTISRDNSKNTLYLQMNSLRAEDTAVYYCAKGAGHGSYVKGWFDPWGQGTLVTVSS VL: EIVLTQSPATLSLSPGERATLSCRASQSVSSYLAWYQQKPGQAPRLLIYDASNRATGIPARFSGSGSGTDFTLTISSLEPEDFAVYYCQQSVNFPFTFGGGTKVEIK |  | 7.88 | 171 | 97 | 99 |
| 5592 (antibody, V domains shown) VH: not shown VL: EIVLTQSPATLSLSPGERATLSCRASQSVSSYLAWYQQKPGQAPRLLIYDASNRATGIPARFSGSGSGTDFTLTISSLEPEDFAVYYCQQSVNFPFTFGGGTKVEIK |  | 95.9 | 189 | 60 | 63 |
